Experimental data published in patent publication US20200181223A1.
Blank lines part the entries; values can stand above or below the substance they belong to.

Columns and labels:
[1] = molecular target: human insulin receptor isoform B (IR-B) (human) (UniProt P06213)
[2] = molecular target: human insulin receptor isoform B (IR-B) (human) (UniProt P06213); assay: SPA competition with [125I]-labelled human insulin, plasma membranes of CHO cells overexpressing the IR; 0 means below the detection limit
[3] = molecular target: human insulin receptor isoform B (IR-B) (human) (UniProt P06213); assay: SPA competition with [125I]-labelled human insulin, plasma membranes of CHO cells overexpressing the IR
[4] = molecular target: human insulin receptor isoform B (IR-B) (human) (UniProt P06213); assay: SPA competition with [125I]-labelled human insulin, plasma membranes of CHO cells overexpressing the IR; category B (<20%) as defined in paragraph 522
[5] = molecular target: Glu(A14)Ile(B25)Des(B30)-Insulin (human)
[6] = molecular target: Glu(A14)Val(B25)Des(B30)-Insulin (human)
[7] = molecular target: Glu(A14)Des(B30)-Insulin (human)
[8] = molecular target: Glu(A14)Val(B16)Val(B25)Des(B30)-Insulin (human)
[9] = molecular target: Human Insulin (wild-type) (human)
[10] = molecular target: Val(B25)Des(B30)-Insulin (human)
[11] = molecular target: Glu(A14)Val(B16)Des(B30)-Insulin (human)
[12] = molecular target: Gly(A21)Trp(B16)His(B25)Des(B30)-Insulin (human)
Sequence of Gly(A21)Trp(B16)His(B25)Des(B30)-Insulin (human) (chain, as listed by the source, chain 1 of 2): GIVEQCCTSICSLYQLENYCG
Sequence of Gly(A21)Trp(B16)His(B25)Des(B30)-Insulin (human) (chain, as listed by the source, chain 2 of 2): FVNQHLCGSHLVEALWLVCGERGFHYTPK

[13] = molecular target: Leu(B25)Des(B30)-Insulin (human)
Sequence of Leu(B25)Des(B30)-Insulin (human) (chain, as listed by the source, chain 1 of 2): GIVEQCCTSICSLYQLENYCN
Sequence of Leu(B25)Des(B30)-Insulin (human) (chain, as listed by the source, chain 2 of 2): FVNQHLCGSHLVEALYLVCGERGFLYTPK

[14] = molecular target: Glu(A14)His(B16)Des(B30)-Insulin (human)
Sequence of Glu(A14)His(B16)Des(B30)-Insulin (human) (chain, as listed by the source, chain 1 of 2): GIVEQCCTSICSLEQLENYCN
Sequence of Glu(A14)His(B16)Des(B30)-Insulin (human) (chain, as listed by the source, chain 2 of 2): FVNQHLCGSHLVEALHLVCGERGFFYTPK

[15] = molecular target: Glu(A14)Gly(A21)Trp(B25)Des(B30)-Insulin (human)
Sequence of Glu(A14)Gly(A21)Trp(B25)Des(B30)-Insulin (human) (chain, as listed by the source, chain 1 of 2): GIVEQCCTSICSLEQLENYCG
Sequence of Glu(A14)Gly(A21)Trp(B25)Des(B30)-Insulin (human) (chain, as listed by the source, chain 2 of 2): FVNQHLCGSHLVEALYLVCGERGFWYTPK

Sequence of purified pepsin (from porcine stomach mucosa) in simulated gastric fluid (P00791 60-385): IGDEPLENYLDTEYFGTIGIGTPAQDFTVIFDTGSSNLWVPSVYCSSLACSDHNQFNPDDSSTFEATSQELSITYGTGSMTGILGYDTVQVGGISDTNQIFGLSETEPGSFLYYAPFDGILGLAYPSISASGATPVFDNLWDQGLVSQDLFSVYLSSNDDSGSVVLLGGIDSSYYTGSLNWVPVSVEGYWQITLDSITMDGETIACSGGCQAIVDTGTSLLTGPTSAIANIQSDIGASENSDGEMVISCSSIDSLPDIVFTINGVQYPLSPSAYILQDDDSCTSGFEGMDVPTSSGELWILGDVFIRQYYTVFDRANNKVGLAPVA
Sequence of Glu(A14)Val(B16)Ile(B25)Des(B30)-Insulin (ligand) (chain): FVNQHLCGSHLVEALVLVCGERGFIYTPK
Sequence of Glu(A14)His(B16)His(B25)Des(B30)-Insulin (ligand) (chain): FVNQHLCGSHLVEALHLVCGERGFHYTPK
Sequence of Glu(A14)Glu(B3)Val(B16)Des(B30)-Insulin (ligand) (chain): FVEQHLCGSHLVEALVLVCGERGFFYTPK
Sequence of Glu(A14)Leu(B16)Ala(B25)Des(B30)-Insulin (ligand) (chain): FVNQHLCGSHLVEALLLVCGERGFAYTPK
Sequence of Glu(A14)Ile(B16)Val(B25)Des(B30)-Insulin (ligand) (chain): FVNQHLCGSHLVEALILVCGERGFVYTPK
Sequence of Glu(A14)Val(B16)Val(B25)Des(B30)-Insulin (ligand) (chain): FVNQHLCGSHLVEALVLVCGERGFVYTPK
Sequence of Glu(A14)Glu(B3)Val(B16)Val(B25)Des(B30)-Insulin (ligand) (chain): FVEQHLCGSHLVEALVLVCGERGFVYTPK
Sequence of Glu(A14)Ile(B16)Des(B30)-Insulin (ligand) (chain): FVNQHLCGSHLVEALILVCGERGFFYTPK
Sequence of Glu(A14)Glu(B3)Ile(B16)Ile(B25)Des(B30)-Insulin (ligand) (chain): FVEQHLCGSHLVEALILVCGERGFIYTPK
Sequence of Glu(A14)Glu(B16)His(B25)Des(B30)-Insulin (ligand) (chain): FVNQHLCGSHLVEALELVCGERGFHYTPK
Sequence of Glu(A14)Gly(A21)Val(B16)Trp(B25)Des(B30)-Insulin (ligand) (chain): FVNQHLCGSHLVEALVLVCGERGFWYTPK
Sequence of Glu(A14)Gly(A21)Glu(B3)Ile(B16)Val(B25)Des(B30)-Insulin (ligand) (chain): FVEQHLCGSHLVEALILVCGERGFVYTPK
Sequence of Glu(A14)Gly(A21)Glu(B3)Val(B25)Des(B30)-Insulin (ligand) (chain): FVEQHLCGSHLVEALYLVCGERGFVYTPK
Sequence of Glu(A14)Gly(A21)Glu(B3)Ile(B16)Trp(B25)Des(B30)-Insulin (ligand) (chain): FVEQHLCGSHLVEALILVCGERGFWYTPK
Sequence of Glu(A14)Gly(A21)Trp(B16)Des(B30)-Insulin (ligand) (chain): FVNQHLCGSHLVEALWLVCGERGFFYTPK
Sequence of Glu(A14)Gly(A21)Glu(B3)Val(B16)Trp(B25)Des(B30)-Insulin (ligand) (chain): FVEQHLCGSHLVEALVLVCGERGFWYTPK
Sequence of Gly(A21)Trp(B16)Trp(B25)Des(B30)-Insulin (ligand) (chain): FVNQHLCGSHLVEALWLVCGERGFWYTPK
Sequence of Glu(A14)His(B16)Ala(B25)Des(B30)-Insulin (ligand) (chain): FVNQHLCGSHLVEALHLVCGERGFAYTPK
Sequence of Glu(A14)Val(B16)Des(B30)-Insulin (ligand) (chain): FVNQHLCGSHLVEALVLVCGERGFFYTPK
Sequence of Ala(B25)Des(B30)-Insulin (ligand) (chain): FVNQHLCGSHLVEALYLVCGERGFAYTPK

Substance: Glu(A14)Glu(B3)Ile(B16)Ile(B25)Des(B30)-Insulin (ligand)
autophosphorylation activity relative to human insulin (relative to human insulin) [1]: 0.01
Insulin-receptor binding affinity relative to human insulin (relative to human insulin) [2]: 0

Substance: Val(B16)Des(B30)-Insulin (ligand)
autophosphorylation activity relative to human insulin (relative to human insulin) [1]: 0.32

Substance: Glu(A14)Ile(B16)Des(B30)-Insulin (ligand)
autophosphorylation activity relative to human insulin (relative to human insulin) [1]: 0.18
Insulin-receptor binding affinity relative to human insulin (relative to human insulin) [3]: 0.23

Substance: Glu(A14)Val(B16)Des(B30)-Insulin (ligand)
autophosphorylation activity relative to human insulin (relative to human insulin) [1]: 0.32

Substance: Gly(A21)Trp(B16)His(B25)Des(B30)-Insulin (ligand)
autophosphorylation activity relative to human insulin (relative to human insulin) [1]: 0.35
Insulin-receptor binding affinity relative to human insulin (relative to human insulin) [3]: 0.4

Substance: Glu(A14)Glu(B3)Val(B16)Des(B30)-Insulin (ligand)
autophosphorylation activity relative to human insulin (relative to human insulin) [1]: 0.28
Insulin-receptor binding affinity relative to human insulin (relative to human insulin) [3]: 0.4

Substance: Glu(A14)Gly(A21)Glu(B3)Val(B16)Val(B25)Des(B30)-Insulin (ligand)
autophosphorylation activity relative to human insulin (relative to human insulin) [1]: 0.01
Insulin-receptor binding affinity relative to human insulin (relative to human insulin) [3]: 0.01

Substance: Glu(A14)Gly(A21)Glu(B3)Ile(B16)Trp(B25)Des(B30)-Insulin (ligand)
autophosphorylation activity relative to human insulin (relative to human insulin) [1]: 0.13
Insulin-receptor binding affinity relative to human insulin (relative to human insulin) [3]: 0.12

Substance: Glu(A14)Gly(A21)Glu(B3)Val(B25)Des(B30)-Insulin (ligand)
autophosphorylation activity relative to human insulin (relative to human insulin) [1]: 0.03
Insulin-receptor binding affinity relative to human insulin (relative to human insulin) [3]: 0.02

Substance: Glu(A14)Val(B16)Ile(B25)Des(B30)-Insulin (ligand)
autophosphorylation activity relative to human insulin (relative to human insulin) [1]: 0.01
Insulin-receptor binding affinity relative to human insulin (relative to human insulin) [2]: 0

Substance: Glu(A14)His(B16)Des(B30)-Insulin (ligand)
autophosphorylation activity relative to human insulin (relative to human insulin) [1]: 0.29
Insulin-receptor binding affinity relative to human insulin (relative to human insulin) [3]: 0.36

Substance: purified pepsin (from porcine stomach mucosa) in simulated gastric fluid (from UniProt P00791) (enzyme)
percent remaining insulin analog after 30 minutes in gastric fluid [5]: 52%
percent remaining insulin analog after 30 minutes in gastric fluid [6]: 52%
percent remaining insulin analog after 30 minutes in gastric fluid [7]: 0%
percent remaining insulin analog after 30 minutes in gastric fluid [8]: 36%
percent remaining insulin after 30 minutes in gastric fluid [9]: 0%
percent remaining insulin analog after 30 minutes in gastric fluid [10]: 44%
percent remaining insulin analog after 30 minutes in gastric fluid (Ala(B25)-Insulin (human)): 30%
percent remaining insulin analog after 30 minutes in gastric fluid [11]: 0%

Substance: Glu(A14)Val(B16)Val(B25)Des(B30)-Insulin (ligand)
autophosphorylation activity relative to human insulin (relative to human insulin) [1]: 0.03
Insulin-receptor binding affinity relative to human insulin (relative to human insulin) [2]: 0

Substance: Glu(A14)Gly(A21)Glu(B3)Val(B16)Trp(B25)Des(B30)-Insulin (ligand)
autophosphorylation activity relative to human insulin (relative to human insulin) [1]: 0.19
Insulin-receptor binding affinity relative to human insulin (relative to human insulin) [3]: 0.21

Substance: Cathepsin D (enzyme)
percent remaining insulin analog after 30 minutes with Cathepsin D [5]: 20%
percent remaining insulin analog after 30 minutes with Cathepsin D [6]: 59%
percent remaining insulin analog after 30 minutes with Cathepsin D [7]: 0%
percent remaining insulin analog after 30 minutes with Cathepsin D [8]: 62%
percent remaining insulin after 30 minutes with Cathepsin D [9]: 0%
percent remaining insulin analog after 30 minutes with Cathepsin D [10]: 43%
percent remaining insulin analog after 30 minutes with Cathepsin D (Ala(B25)-Insulin (human)): 52%
percent remaining insulin analog after 30 minutes with Cathepsin D [11]: 0%

Substance: Glu(A14)Gly(A21)Trp(B16)Des(B30)-Insulin (ligand)
autophosphorylation activity relative to human insulin (relative to human insulin) [1]: 0.38
Insulin-receptor binding affinity relative to human insulin (relative to human insulin) [3]: 0.63

Substance: Gly(A21)Trp(B16)Des(B30)-Insulin (ligand)
autophosphorylation activity relative to human insulin (relative to human insulin) [1]: 0.4
Insulin-receptor binding affinity relative to human insulin (relative to human insulin) [3]: 0.57

Substance: Glu(A14)Gly(A21)Glu(B3)Ile(B16)Val(B25)Des(B30)-Insulin (ligand)
autophosphorylation activity relative to human insulin (relative to human insulin) [1]: 0.02
Insulin-receptor binding affinity relative to human insulin (relative to human insulin) [3]: 0.01

Substance: Glu(A14)Glu(B3)Val(B16)Val(B25)Des(B30)-Insulin (ligand)
autophosphorylation activity relative to human insulin (relative to human insulin) [1]: 0.02
Insulin-receptor binding affinity relative to human insulin (relative to human insulin) [2]: 0

Substance: Glu(A14)Ile(B16)Val(B25)Des(B30)-Insulin (ligand)
autophosphorylation activity relative to human insulin (relative to human insulin) [1]: 0.04
Insulin-receptor binding affinity relative to human insulin (relative to human insulin) [2]: 0

Second part, the substance after the results:

autophosphorylation activity relative to human insulin (relative to human insulin) [1]: 0.11
Substance: Glu(A14)His(B16)Ala(B25)Des(B30)-Insulin (ligand)

Insulin receptor B binding affinity relative to human insulin [4]: < 20%
Substance: Glu(A14)His(B16)His(B25)[16-[4-[[5-[2-[2-[2-[2-[2-(carboxymethyloxy)ethoxy]ethylamino]-2-oxoethoxy]ethoxy]-ethylcarbamoyl]pyrimidin-2-yl]sulfamoyl]phenoxy]hexadecanoic acid]Lys(B29)Des(B30)-insulin (ligand)

autophosphorylation activity relative to human insulin (relative to human insulin) [1]: 0.17
Substance: Ala(B25)Des(B30)-Insulin (ligand)

percent remaining insulin analog after 120 minutes with α-Chymotrypsin [5]: 99%
percent remaining insulin analog after 120 minutes with α-Chymotrypsin [6]: 40%
percent remaining insulin analog after 120 minutes with α-Chymotrypsin [7]: 35%
percent remaining insulin analog after 120 minutes with α-Chymotrypsin [8]: 34%
percent remaining insulin after 120 minutes with α-Chymotrypsin [9]: 5%
percent remaining insulin analog after 120 minutes with α-Chymotrypsin [10]: 31%
percent remaining insulin analog after 120 minutes with α-Chymotrypsin (Ala(B25)-Insulin (human)): 58%
percent remaining insulin analog after 120 minutes with α-Chymotrypsin [11]: 30%
Substance: α-Chymotrypsin (enzyme)

percent remaining insulin analog after 30 minutes with insulin degrading enzyme, IDE [5]: 77%
percent remaining insulin analog after 30 minutes with insulin degrading enzyme, IDE [6]: 86%
percent remaining insulin analog after 30 minutes with insulin degrading enzyme, IDE [12]: 41%
percent remaining insulin analog after 30 minutes with insulin degrading enzyme, IDE [7]: 81%
percent remaining insulin analog after 30 minutes with insulin degrading enzyme, IDE [8]: 86%
percent remaining insulin after 30 minutes with insulin degrading enzyme, IDE [9]: 38%
percent remaining insulin analog after 30 minutes with insulin degrading enzyme, IDE [10]: 11%
percent remaining insulin analog after 30 minutes with insulin degrading enzyme, IDE [13]: 12%
percent remaining insulin analog after 30 minutes with insulin degrading enzyme, IDE [14]: 88%
percent remaining insulin analog after 30 minutes with insulin degrading enzyme, IDE (Ala(B25)-Insulin (human)): 2%
percent remaining insulin analog after 30 minutes with insulin degrading enzyme, IDE [15]: 80%
percent remaining insulin analog after 30 minutes with insulin degrading enzyme, IDE [11]: 98%
Substance: insulin degrading enzyme (IDE)

autophosphorylation activity relative to human insulin (relative to human insulin) [1]: 0.23
Insulin-receptor binding affinity relative to human insulin (relative to human insulin) [3]: 0.17
Substance: Glu(A14)Gly(A21)Val(B16)Trp(B25)Des(B30)-Insulin (ligand)

autophosphorylation activity relative to human insulin (relative to human insulin) [1]: 0.04
Insulin-receptor binding affinity relative to human insulin (relative to human insulin) [3]: 0.01
Substance: Glu(A14)Leu(B16)Ala(B25)Des(B30)-Insulin (ligand)

autophosphorylation activity relative to human insulin (relative to human insulin) [1]: 0.11
Insulin-receptor binding affinity relative to human insulin (relative to human insulin) [3]: 0.12
Substance: Glu(A14)His(B16)His(B25)Des(B30)-Insulin (ligand)

Insulin receptor B binding affinity relative to human insulin [4]: < 20%
Substance: Insulin analog 41 (Glu(A14)His(B16)His(B25)Des(B30)-insulin) (ligand)

autophosphorylation activity relative to human insulin (relative to human insulin) [1]: 0.38
Insulin-receptor binding affinity relative to human insulin (relative to human insulin) [3]: 0.43
Substance: Gly(A21)Trp(B16)Trp(B25)Des(B30)-Insulin (ligand)

autophosphorylation activity relative to human insulin (relative to human insulin) [1]: 0.07
Insulin-receptor binding affinity relative to human insulin (relative to human insulin) [3]: 0.01
Substance: Glu(A14)Glu(B16)His(B25)Des(B30)-Insulin (ligand)
